Measured values reported in patent US8524664B2, “Methods of treating overproduction of cortisol using ACTH antagonist peptides” (Colorado Seminary, Which owns and Operates The Univeristy …, priority 2011, dated 2013).
Entries after “also recorded” stand apart in the source; their conditions may differ. Where two headings read alike, the source gives them in different places. One block for each substance: values may come before it.

How the values were obtained:
MC2R [1] = target: T1, MC2R (Homo sapiens, UniProt Q01718); experiment: Activation of hMC2R by ACTH analogs: cAMP production in CHO cells co-transfected with hMC2R and mouse MRAP1; format: cell-based; parameters: host or cells: CHO cells, transient transfection, pcDNA3.1; conditions: for MC2R activation relative to full-length ACTH: fold drop in activity / MC2R activation relative to full-length ACTH: analog alone, transfected CHO cells, cAMP after 15 min
Experimental: (§1) FIG. 1. Inhibition of ACTH(1-24) by ACTH(15-24) peptide. For all experiments, Chinese Hamster Ovary (CHO) cells were transiently transfected with a human melanocortin receptor gene construct (MC2R for FIGS. 1-3) and a mouse MRAP1 gene, as described in the Examples section. Two days later, individual wells of transfected CHO cells (10^5 cells per well) were incubated with ACTH(1-24) at concentrations ranging from 10^−6 to 10^−12 M. For these experiments, each concentration of ACTH(1-24) was co-incubated with either no KKRRPVKVYP (SEQ ID NO:1) (filled circle), 10^−6 M KKRRPVKVYP (SEQ ID NO:1) (filled diamond), 10^−7 M KKRRPVKVYP (SEQ ID NO:1) (half-filled square), 10^−8 KKRRPVKVYP (SEQ ID NO:1) (circle in square), or 10^−9 M KKRRPVKVYP (SEQ ID NO:1) (open square). After a 15 minute incubation, the amount of cAMP produced in each well of CHO cells was measured. Each data point is a minimum of n=3. […] The ACTH analog ACTH(11-24) [KPVGKKRRPVKVYP; SEQ ID NO:7] at a concentration of 10^−6 M produced a 50% inhibition of ACTH(1-24) stimulation, but had no effect on ACTH(1-24) stimulation when tested at a concentration of 10^−7 M.
(§2) To test this hypothesis, a human MC2R gene construct was transiently co-transfected with a mouse MCR2R accessory protein 1 (MRAP1) gene into CHO cells and subsequently, cAMP production was measured.
(§3) Human hMC2R, Genbank Accession No. AY225229.1, was synthesized by GenScript with a V-5 epitope tag and inserted into a pcDNA3.1 vector. Mouse (Mus musculus) mMRAP1, Genbank Accession No. NM_029844, was also synthesized by GenScript with a FLAG epitope tag and inserted into pcDNA3.1 vectors.
(§4) The experiments were all done in transiently transfected CHO cells. The CHO cells were grown at 37° C. in a humidified 5% CO2 incubator in Kaighn's Modification of Ham's F-12 (2 mM glutamine, 1500 mg/L bicarbonate) with 10% fetal bovine serum, 5 mL pen/strep, and 1 mL normocin.
(§5) In order to functionally express hMC2R in heterologous cells, like CHO cells, the hMC2R construct must be co-transfected with a mammalian MRAP (melanocortin receptor accessory protein; Hinkle, P. M. and Sebag, J. A. (2009) Structure and function of the melanocortin 2 receptor accessory protein. Mol. Cell. Endocrinol. 300:25-31). CHO cells were transfected with 2 μg of hMC2R and mMRAP using a Cell Line Nucleofector Kit (Amaxa, Inc.) with solution T and program U-023. The cells were then plated on a white, 96-well plate a density of 1×10^5 cells per well. 48 hours after transfection, cells were stimulated with the appropriate ligands in serum-free CHO media for 15 minutes at 37° C. at concentrations ranging from 10^−5 M to 10^−10 M. After a 15 minute incubation, a direct cAMP EIA kit (Assay Designs, Ann Arbor, Mich.) was used to measure cAMP in the CHO cells.
(§6) All experimental treatments were performed in no less than triplicate, and then corrected for control values, which were obtained by using transfected cells that were left unstimulated. In each of the assays, maximal activation levels were between three to 10 times the control level. Corrected values were normalized to 100 nM ACTH activation. Average values and standard errors of the mean were graphed using KaleidaGraph software, and the […] value for each ligand was determined.
Target sequence in this assay (Q01718 whole entry): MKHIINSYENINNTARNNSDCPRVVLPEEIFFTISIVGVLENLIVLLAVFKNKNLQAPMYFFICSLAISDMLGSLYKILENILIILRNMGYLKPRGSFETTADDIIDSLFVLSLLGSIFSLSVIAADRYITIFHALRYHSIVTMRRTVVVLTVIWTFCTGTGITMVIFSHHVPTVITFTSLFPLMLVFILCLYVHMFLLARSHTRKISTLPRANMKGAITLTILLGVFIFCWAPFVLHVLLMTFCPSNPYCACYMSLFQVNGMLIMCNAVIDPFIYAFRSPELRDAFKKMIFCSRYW
Target sequence in this assay (Q9D159 whole entry partner): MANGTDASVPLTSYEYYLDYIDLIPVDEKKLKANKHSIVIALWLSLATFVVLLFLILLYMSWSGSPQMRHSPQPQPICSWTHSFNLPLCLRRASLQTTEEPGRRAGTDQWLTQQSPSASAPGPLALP

MC2R [2] = target: T1, MC2R; experiment: Inhibition of ACTH(1-24)-dependent hMC2R activation by co-incubated analog: cAMP in transfected CHO cells; format: cell-based; parameters: host or cells: CHO cells, transient transfection, pcDNA3.1
Experimental: as §1
Target sequence in this assay (Q01718 whole entry): as the sequence (Q01718 whole entry) above
Target sequence in this assay (Q9D159 whole entry partner): as the sequence (Q9D159 whole entry partner) above
FIG. 2. Dose response curve for ACTH analog AT814. AT814 is a previously-described ACTH inhibitor (WO 2006/052468). For this experiment, individual wells of transfected CHO cells (as described for FIG. 1) were incubated with ACTH(1-24) at concentrations ranging from 10^−6 to 10^−12 M alone (open circle) or ACTH(1-24) and AT814 at a concentration of 10^−6 M (open square).
FIG. 3. Dose response curve for ACTH analog AT814. […] Open circles: ACTH(1-24) alone; open squares: ACTH(1-24)+AT814 (10^−7 M).
as §2, §3, §4, §5, §6

MC2R [3] = target: T1, MC2R; experiment: Activation of hMC2R by ACTH analogs: cAMP production in CHO cells co-transfected with hMC2R and mouse MRAP1; format: cell-based; parameters: host or cells: CHO cells, transient transfection, pcDNA3.1; conditions: 10^-6 to 10^-12 M
Target sequence in this assay (Q01718 whole entry): as the sequence (Q01718 whole entry) above
Target sequence in this assay (Q9D159 whole entry partner): as the sequence (Q9D159 whole entry partner) above

MC2R [4] = target: T1, MC2R; conditions: from previous studies / literature, cited from earlier work
Target sequence in this assay (Q01718 whole entry, species assumed): as the sequence (Q01718 whole entry) above
Target sequence in this assay (Q8TCY5 whole entry partner, species assumed): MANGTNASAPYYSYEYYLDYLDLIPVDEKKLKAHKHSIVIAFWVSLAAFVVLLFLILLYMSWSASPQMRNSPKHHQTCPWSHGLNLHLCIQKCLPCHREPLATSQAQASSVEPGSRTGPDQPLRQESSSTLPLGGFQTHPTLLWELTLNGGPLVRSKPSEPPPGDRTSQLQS

human MC4R = target: T2, human MC4R (Homo sapiens, UniProt P32245); experiment: Activation of human MC4R in hMC4R-transfected CHO cells (cAMP production); format: cell-based; conditions: analog at 10^-6 to 10^-12 M
T2 construct: expressed in transfected cells; host or cells: CHO cells, pcDNA3.1
Experimental: FIG. 4. Activation of human MC4R by ACTH analog AT814. Because AT814 has the HFRW (SEQ ID NO:8) motif, the hypothesis that this analog could activate the human MC4 receptor was tested. CHO cells were transfected with a human MC4R cDNA construct in a pcDNA3.1 vector.

[5] = analog at 10^-6 M co-incubated with ACTH(1-24) 10^-6 to 10^-12 M
[6] = analog at 10^-7 M co-incubated with ACTH(1-24) 10^-6 to 10^-12 M
[7] = analog at 10^-8 M co-incubated with ACTH(1-24)

T2 sequence (P32245 whole entry): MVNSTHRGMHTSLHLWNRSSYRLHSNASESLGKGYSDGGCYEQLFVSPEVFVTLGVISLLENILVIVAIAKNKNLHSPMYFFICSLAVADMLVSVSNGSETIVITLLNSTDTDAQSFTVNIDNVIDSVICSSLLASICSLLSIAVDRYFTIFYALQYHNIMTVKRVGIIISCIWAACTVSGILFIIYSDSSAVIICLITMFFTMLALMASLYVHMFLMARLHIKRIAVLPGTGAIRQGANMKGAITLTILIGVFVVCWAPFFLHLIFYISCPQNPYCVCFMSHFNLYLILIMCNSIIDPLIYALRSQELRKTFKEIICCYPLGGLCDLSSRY

Substance: KKRRPVKVYP (synthetic adrenocorticotropin hormone analog ACTH(15-24) peptide, human ACTH residues 15-24, ACTH antagonist polypeptide) [ACTH antagonist polypeptide, residues 15-24 of human ACTH]
inhibition of ACTH(1-24) activation of hMC2R (MC2R [2]; [5]): complete blockage
inhibition of ACTH(1-24) activation of hMC2R (MC2R [2]; analog at 10^-6 M co-incubated with ACTH(1-24) 10^-6 to 10^-12 M, listed as ACTH(15-24)): completely blocked
inhibition of ACTH(1-24) activation of hMC2R (MC2R [2]; [6]): complete blockage
inhibition of ACTH(1-24) activation of hMC2R (MC2R [2]; analog at 10^-7 M co-incubated with ACTH(1-24) 10^-6 to 10^-12 M, listed as ACTH(15-24)): completely blocked
drop in hMC2R activation by ACTH(1-24) (MC2R [2]; [7]): 34±5%
inhibition of ACTH(1-24) activation of hMC2R (MC2R [2]; [7]): partial blockage
inhibition of ACTH(1-24) activation of hMC2R (MC2R [2]; analog at 10^-9 M co-incubated with ACTH(1-24)): no effect
activation of hMC2R (cAMP production) by analog incubated alone (MC2R [3]): did not activate
MC2R activation relative to full-length ACTH (MC2R [1]): No activity

Substance: NAc-SYSMEHFRWGKPV-NH2 [α-MSH]
activation of MC2R (previous studies) (MC2R [4]): cannot activate

Substance: KKRRPAAAA (synthetic adrenocorticotropin hormone (ACTH) analog)
inhibition of ACTH(1-24) activation of hMC2R (MC2R [2]; [5]): did not block

Substance: SYSMEHFRWGKPVGKKRRPVKVYP [reference compound]
activation of hMC2R (cAMP production) by analog incubated alone (MC2R [1]; 10^-6 to 10^-12 M, listed as ACTH(1-24)): robust standard curve; also recorded: produced cAMP in a dose dependent manner
MC2R activation relative to full-length ACTH (MC2R [1]): Full activity
activation of MC2R (previous studies) (MC2R [4]; listed as ACTH(1-24)): as potent an activator of MC2R as ACTH(1-39); also recorded: as fully as full-length human ACTH

Substance: SYSMEHFRWGKPVGAAAAAVKVYP (synthetic adrenocorticotropin hormone (ACTH) analog)
MC2R activation relative to full-length ACTH (MC2R [1]): No activity

Substance: SYSMEHFRWAAAAAKKRRPVKVYP (synthetic adrenocorticotropin hormone (ACTH) analog)
MC2R activation relative to full-length ACTH: fold drop in activity (MC2R [1]): 400 fold drop

Substance: SYSMEHFAWGKPVGKKRRPVKVYP (synthetic adrenocorticotropin hormone (ACTH) analog)
MC2R activation relative to full-length ACTH (MC2R [1]): No activity

Substance: SYSMEHFRWGKPVGKRAAWVKVYP (synthetic adrenocorticotropin hormone (ACTH) analog AT814 with modified KKRRP motif) [reference compound]
activation of human MC4R (cAMP production) (human MC4R): can activate; also recorded: stimulated the production of cAMP in a dose dependent manner
inhibition of ACTH(1-24) activation of hMC2R (MC2R [2]; [5]): competitive inhibitor; also recorded: completely inhibited
inhibition of ACTH(1-24) activation of hMC2R (MC2R [2]; [6]): ineffective; also recorded: no inhibitory effect

Continued, values first:

MC2R activation relative to full-length ACTH: fold drop in activity (MC2R [1]): 100 fold drop
Substance: SYSMEHFRWGKPVGKKAAAVKVYP (synthetic adrenocorticotropin hormone (ACTH) analog)

MC2R activation relative to full-length ACTH (MC2R [1]): No activity
Substance: SYSMEHARWGKPVGKKRRPVKVYP (synthetic adrenocorticotropin hormone (ACTH) analog)

inhibition of ACTH(1-24) activation of hMC2R (MC2R [2]; [5]): did not block
inhibition of ACTH(1-24) activation of hMC2R (MC2R [2]; analog at 10^-6 M co-incubated with ACTH(1-24) 10^-6 to 10^-12 M, listed as ACTH(17-24)): no inhibitory effect
MC2R activation relative to full-length ACTH (MC2R [1]): No activity
Substance: RRPVKVYP (synthetic adrenocorticotropin hormone analog ACTH(17-24) peptide, human ACTH residues 17-24) [ACTH analog ACTH(17-24)]

MC2R activation relative to full-length ACTH: fold drop in activity (MC2R [1]): 100 fold drop
Substance: SYSMEHFRWGKPVGAARRPVKVYP (synthetic adrenocorticotropin hormone (ACTH) analog)

MC2R activation relative to full-length ACTH (MC2R [1]): No activity
Substance: SYSMEAAAAGKPVGKKRRPVKVYP (synthetic adrenocorticotropin hormone (ACTH) analog)

inhibition of ACTH(1-24) stimulation (MC2R [2]; analog at 10^-6 M co-incubated with ACTH(1-24)): 50%
inhibition of ACTH(1-24) activation of hMC2R (MC2R [2]; [6]): no effect
Substance: KPVGKKRRPVKVYP (synthetic adrenocorticotropin hormone analog ACTH(11-24) peptide, human ACTH residues 11-24) [ACTH analog ACTH(11-24), reference compound]
